Reference: PMC9010608

Tests used:
[1] = target: T1, Strep-HP1021 (orphan response regulator) (Helicobacter pylori 26695) (UniProt O25665); assay: competition; details: EMSA: 50 mM Tris-Cl, 250 mM KCl, 5 mM DTT, pH 7.0, 100 ng/uL sheared salmon sperm DNA, 37 C 30 min, 20 uL, 4% native PAGE, footprinting: 37 C 30 min
T1 sequence: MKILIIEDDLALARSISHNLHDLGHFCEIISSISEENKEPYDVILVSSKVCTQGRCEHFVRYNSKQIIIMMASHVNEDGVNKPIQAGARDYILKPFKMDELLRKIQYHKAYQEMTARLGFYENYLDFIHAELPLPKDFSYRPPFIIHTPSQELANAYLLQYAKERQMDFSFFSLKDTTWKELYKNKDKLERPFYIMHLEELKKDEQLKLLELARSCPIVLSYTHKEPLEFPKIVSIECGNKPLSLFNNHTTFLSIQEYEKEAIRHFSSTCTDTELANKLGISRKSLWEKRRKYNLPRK

[2] = target: T1, Strep-HP1021 (orphan response regulator) (Helicobacter pylori 26695); assay: EMSA; details: EMSA: 50 mM Tris-Cl, 250 mM KCl, 5 mM DTT, pH 7.0, 100 ng/uL sheared salmon sperm DNA, 37 C 30 min, 20 uL, 4% native PAGE, footprinting: 37 C 30 min

Sequence	binding [1]	binding [2]
CCATTATCACTCCAATTTTAATTCTCATTTTTTTGCGAGTTTTTGATCTTTATAAATTCTAAAGGGGTATTAAACGCACTTCTAATAACGATTTTATAGCGCTTCAAAGATATAACACTAATTCATTTTAAATAATAATTAGTTAATGAACGCTTCTGTTAATCTTAGTAAATCAAAACATTGCTACAATTACATCCAACCTTGATTTCGTTATGTCTTCAAGGAAAAACACTTTAAGAATAGGAGAATAAG (double strand) [PureA cold probe (unlabeled)]	binds	
CCATTATCACTCCAATTTTAATTCTCATTTTTTTGCGAGTTTTTGATCTTTATAAATTCTAAAGGGGTATTAAACGCACTTCTAATAACGATTTTATAGCGCTTCAAAGATATAACACTAATTCATTTTAAATAATAATTAGTTAATGAACGCTTCCAGCCGGCTTCGTCAGTCGAAACATGTACGTGATTACATCCAACCTTGATTTCGTTATGTCTTCAAGGAAAAACACTTTAAGAATAGGAGAATAAG (double strand) [PureAmt (mutated ureAB promoter probe)]		no binding
CCATTATCACTCCAATTTTAATTCTCATTTTTTTGCGAGTTTTTGATCTTTATAAATTCTAAAGGGGTATTAAACGCACTTCTAATAACGATTTTATAGCGCTTCAAAGATATAACACTAATTCATTTTAAATAATAATTAGTTAATGAACGCTTCTGTTAATCTTAGTAAATCAAAACATTGCTACAATTACATCCAACCTTGATTTCGTTATGTCTTCAAGGAAAAACACTTTAAGAATAGGAGAATAAG (double strand) [PureA (ureAB promoter, AF700 probe)]		binds
